In US20110008841A1:

Target: chimera L
Test: Bio-Plex titration on bead-captured chimera; cell bold and boxed = binding lost

B1: AMH26/AML26 (antibody, IgG2, V domains shown)
VH: QVQLVESGGGLVKPGGSLRLSCAASGFTFSDYYMSWIRQAPGKGLEWVSYISSSGSTIYYADSVKGRFTISRDNAKNSLYLQMNSLRAEDTAVYYCARDRTYYFGSGSYEGMDVWGQGTTVTVSS
VL: EILMTQSPATLSVSPGERATLSCRASQSVYSNLAWYQQKPGQAPRLLISGASTRATGIPARFSGSGSGTEFTLTISSLQSEDFAVYYCQQYYNWPWTFGQGTKVEIK
  EC50 cell marked as binding lost although the number is below wild type: 6 pM
